According to patent publication US20230218771A1, “SELF-ASSEMBLING PRODRUGS AS IMMUNE BOOSTERS FOR CANCER IMMUNOTHERAPY” (priority 2020, published 2023):
Where a SMILES comes first, the peptide text is derived from it. Bridges are numbered along the chain shown (N, C = ends). [ ]: non-standard residue; d: D form. The star is where a group is joined. ξ: configuration not given here. X1 = CC[C@@]1(OC(=O)OCCSSC[C@H](NC(C)=O)C(=O)*)C(=O)OCc2c1cc1n(c2=O)Cc2cc3ccccc3nc2-1; S(CH2)2OCO2(CPT-20-yl) = CC[C@@]1(OC(=O)OCCS*)C(=O)OCc2c1cc1n(c2=O)Cc2cc3ccccc3nc2-1; ξR = N=C(N)NCCCC(N)C(=O)O

Columns and labels:
[1] = system: GL-261 tumors; experiment: Tumor tissue penetration, fluorescence imaging of tumor sections (NT vs NT-Sham); type: in vivo, GL-261 tumor-bearing mice; conditions: day 3 after intratumoral injection
Text: FIG. 39 is fluorescence imaging of tumor sections to specifically analyze the information from tumor areas of GL-261 tumor-bearing mice that intratumoral injected with NT-Sham (NTs formed from diCPT-iRGRD) or NT. The images were obtained on day 3 day after treatment. Blue: CPT (Excitation at 365 nm), Red: DRAQS™ stained nuclei, scale bar: 500 μm.

[2] = system: GL-261 cells; experiment: Cytotoxicity assay (MTT or WST-1); type: cell-based; conditions: 48 h incubation
Protocol: GL-261 cells (2.5×10^3 cells/well) were incubated in a 96-well plate overnight. The cells were then treated with varying concentrations of CPT or diCPT-PLGLAG-iRGD or diCPT-iRGD solutions, with untreated cells used as a control. After 48 h incubation, cell viability was tested using an MTT or WST-1 assay. The percentage of cell viability was calculated as follows: Cell Viability (%)=A570sample/A570control×100%. IC50 values of the drug formulations were analyzed using Graph Pad Prism 5.

[3] = system: GL-261 tumor spheroids; experiment: Inhibition of tumor spheroids; type: cell-based; conditions: CPT concentration of 5 μM
Protocol: GL-261 cells were seeded at a density of 1×10^4 cells/well into agarose coated 48-well plates. After the culture plates were incubated at 37° C. for 7 days, the spheroids were treated with free CPT, NT and P-NT at the CPT concentration of 5 μM. The tumor spheroids were photographed every two days. Growth inhibition was evaluated by measuring the size of the tumor spheroids. Volume of the tumor spheroids was calculated using the equation […], with dmax dmin representing the maximum and minimum diameter of the spheroid, respectively.

[4] = GSH responsive drug release of CPT prodrugs; type: in vitro ADME; conditions: presence of GSH, within 2 hours
Protocol: Briefly, 20 mM glutathione (GSH) and 400 μM diCPT-PLGLAG-iRGD or diCPT-iRGD stock solutions were prepared in water or PBS (pH 7.4). Equal volumes of GSH and diCPT-PLGLAG-iRGD or diCPT-iRGD solutions were then mixed to reach a final GSH concentration of 10 mM and the mixtures were incubated at 37° C. Samples were then taken at predetermined time points (0, 0.5, 1, 2, 4, 8, 12 and 24 h) and quantified using HPLC.

[5] = In vivo hydrogel formation and degradation after subcutaneous injection; design: species or system C57BL/6 mice; conditions: within 45 days
Protocol: 100 μl of 7.2 mM P-NT solution or diCPT-iRGD NT solution (5.75 mM, 100 μL) was injected into the back of C57BL/6 mice. The mice were then sacrificed at predetermined time points (1 hour, 5, 15, 30 and 45 days). The remaining hydrogel in each mouse was photographed and the amount of drug that persisted within the hydrogel was determined using HPLC.

[6] = Intratumoral retention of Cy7-labeled CDA (IVIS); type: in vivo, GL-261 tumor-bearing mice; conditions: intratumoral injection
Protocol: At predetermined time points, fluorescence images were recorded by an IVIS Spectrum imaging system (Perkin Elmer).

[7] = molecular target: diCPT-PLGLAG-iRGD

## CC[C@@]1(OC(=O)OCCSSC[C@H](NC(C)=O)C(=O)NCCCC[C@H](NC(=O)[C@H](CSSCCOC(=O)O[C@]2(CC)C(=O)OCc3c2cc2n(c3=O)Cc3cc4ccccc4nc3-2)NC(C)=O)C(=O)N[C@H]2CSSC[C@@H](C(N)=O)NC(=O)[C@H](CC(=O)O)NC(=O)[C@@H]3CCCN3C(=O)CNC(=O)C(CCCNC(=N)N)NC(=O)[C@H](CC(=O)O)NC(=O)CNC(=O)[C@H](CCCNC(=N)N)NC2=O)C(=O)OCc2c1cc1n(c2=O)Cc2cc3ccccc3nc2-1 (stereo partly shown) [diCPT-iRGD] (Ac-C(S(CH2)2OCO2(CPT-20-yl))K(X1)CRGD[ξR]GPDC-NH2; disulfide 3-11)
[1]
  CPT fluorescence at the tumor periphery: distinct CPT fluorescence can be observed throughout the tumor and even at the tumor periphery
[2]
  cytotoxicity against GL-261 brain tumor cells: potent cytotoxicity
[3]
  cytotoxicity against 3D tumor spheroids: potent cytotoxicity
[4]
  free CPT released: ~100%
[5]
  hydrogel degraded: approximately 75%

## Nc1ncnc2c1ncn2[C@@H]1O[C@@H]2COP(O)(=S)O[C@@H]3C(O)[C@@H](COP(O)(=S)O[C@H]2[C@H]1O)O[C@H]3n1cnc2c(N)ncnc21 (stereo partly shown) [free CDA, 2′3′-c-di-AM(PS)2 (Rp,Rp)]
[6]
  CDA fluorescence signal in tumors: virtually no fluorescence signal observed five days after injection

B1: Human MMP2 recombinant protein (protein)
chain: APSPIIKFPGDVAPKTDKELAVQYLNTFYGCPKESCNLFVLKDTLKKMQKFFGLPQTGDLDQNTIETMRKPRCGNPDVANYNFFPRKPKWDKNQITYRIIGYTPDLDPETVDDAFARAFQVWSDVTPLRFSRIHDGEADIMINFGRWEHGDGYPFDGKDGLLAHAFAPGTGVGGDSHFDDDELWTLGEGQVVRVKYGNADGEYCKFPFLFNGKEYNSCTDTGRSDGFLWCSTTYNFEKDGKYGFCPHEALFTMGGNAEGQPCKFPFRFQGTSYDSCTTEGRTDGYRWCGTTEDYDRDKKYGFCPETAMSTVGGNSEGAPCVFPFTFLGNKYESCTSAGRSDGKMWCATTANYDDDRKWGFCPDQGYSLFLVAAHEFGHAMGLEHSQDPGALMAPIYTYTKNFRLSQDDIKGIQELYGASPDIDLGTGPTPTLGPVTPEICKQDIVFDGIAQIRGEIFFFKDRFIWRTVTPRDKPMGPLLVATFWPELPEKIDAVYEAPQEEKAVFFAGNEYWIYSASTLERGYPKPLTSLGLPPDVQRVDAAFNWSKNKKTYIFAGDKFWRYNEVKKKMDPGFPKLIADAWNAIPDNLDAVVDLQGGGHSYFFKGAYYLKLENQSLKSVKFGSIKSDWLGC
[7]
  degradation of diCPT-PLGLAG-iRGD by MMP-2 (HPLC, 200 uM conjugate, 2 ug/ml MMP-2, 37 C): 54% cleaved after 8 hours
